# Results reported in publication PMC12957837, “Crotonylation driving Streptococcus pneumoniae adaption and virulence” (Journal of Advanced Research, 2025).
# Residue numbers refer to the chain shown, from its start. Names and notes keep the numbering of the source.
# B1: pneumolysin (PLY), wild type (natural protein, Streptococcus pneumoniae D39, UniProt Q04IN8 1-471, looked up)
# chain: MANKAVNDFILAMNYDKKKLLTHQGESIENRFIKEGNQLPDEFVVIERKKRSLSTNTSDISVTATNDSRLYPGALLVVDETLLENNPTLLAVDRAPMTYSIDLPGLASSDSFLQVEDPSNSSVRGAVNDLLAKWHQDYGQVNNVPARMQYEKITAHSMEQLKVKFGSDFEKTGNSLDIDFNSVHSGEKQIQIVNFKQIYYTVSVDAVKNPGDVFQDTVTVEDLKQRGISAERPLVYISSVAYGRQVYLKLETTSKSDEVEAAFEALIKGVKVAPQTEWKQILDNTEVKAVILGGDPSSGARVVTGKVDMVEDLIQEGSRFTADHPGLPISYTTSFLRDNVVATFQNSTDYVETKVTAYRNGDLLLDHSGAYVAQYYITWDELSYDHQGKEVLTPKAWDRNGQDLTAHFTTSIPLKGNVRNLSVKIRECTGLAWEWWRTVYEKTDLPLVRKRTISIWGTTLYPQVEDKVEND
# notes: pneumolysin (PLY) of Streptococcus pneumoniae serotype 2 strain D39; also called wild-type PLY; WT PLY
# B2: pneumolysin (PLY) K164R (natural protein, Streptococcus pneumoniae D39, UniProt Q04IN8 1-471, looked up)
# chain: B1 chain with K164R
# notes: pneumolysin (PLY) of Streptococcus pneumoniae serotype 2 strain D39 with K164R
# B3: crotonylated pneumolysin (PLY incubated with crotonyl-CoA) (natural protein, Streptococcus pneumoniae D39, UniProt Q04IN8 1-471, looked up)
# chain: B1 chain
# modifications: lysine crotonylation (Kcr); K171 and K442 are the Kcr sites the paper names
# notes: pneumolysin (PLY) of Streptococcus pneumoniae serotype 2 strain D39; also called crotonylated PLY; source: E. coli BL21 (λDE3), purified, then incubated with 125 µM crotonyl-CoA at 25 °C for 16 h
# B4: pneumolysin (PLY) K442R (natural protein, Streptococcus pneumoniae D39, UniProt Q04IN8 1-471, looked up)
# chain: B1 chain with K442R
# notes: pneumolysin (PLY) of Streptococcus pneumoniae serotype 2 strain D39 with K442R
# B5: pneumolysin (PLY) K171R (natural protein, Streptococcus pneumoniae D39, UniProt Q04IN8 1-471, looked up)
# chain: B1 chain with K171R
# notes: pneumolysin (PLY) of Streptococcus pneumoniae serotype 2 strain D39 with K171R
# Columns and labels:
# SPD_0839 = SPD_0839 (Streptococcus pneumoniae, UniProt A0A0H2ZP99); assay: isothermal titration calorimetry; format: binding
# [1] = target: the molecule itself; assay: nanoparticle tracking analysis; NanoSight NS300, samples diluted with PBS, 25 °C; particle concentration of PLY and its mutants
# [2] = target: the molecule itself; assay: native gel or EMSA; native gel of purified PLY and its mutants; oligomeric and monomeric forms marked by arrows
# [3] = target: the molecule itself; assay: SDS-PAGE without β-mercaptoethanol + Western blot; 1 µg Ply or mutant incubated with 125 µM crotonyl-CoA at 25 °C for 16 h; SDS loading buffer without β-mercaptoethanol, 55 °C for 10 min; 6 % SDS-PAGE; anti-Ply Western blot
# Chain of SPD_0839 (A0A0H2ZP99 entry or part of it): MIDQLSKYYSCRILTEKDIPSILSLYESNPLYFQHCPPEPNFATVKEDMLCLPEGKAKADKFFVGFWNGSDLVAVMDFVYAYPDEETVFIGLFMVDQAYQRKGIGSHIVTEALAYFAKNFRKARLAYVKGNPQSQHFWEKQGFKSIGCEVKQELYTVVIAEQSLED
molecule,measurement,setting,value
CC(=O)SCCNC(=O)CCNC(=O)[C@H](O)C(C)(C)COP(=O)(O)OP(=O)(O)OC[C@H]1O[C@@H](n2cnc3c(N)ncnc32)[C@H](O)[C@@H]1OP(=O)(O)O [AcCoA],Kd,SPD_0839,10.4 µM
C/C=C/C(=O)SCCNC(=O)CCNC(=O)[C@H](O)C(C)(C)COP(=O)(O)OP(=O)(O)OC[C@H]1O[C@@H](n2cnc3c(N)ncnc32)[C@H](O)[C@@H]1OP(=O)(O)O [CrCoA],Kd,SPD_0839,1 µM
B1,binding result,[1],binds
B2,binding result,[2],binds
B3,binding result,[3],binds
B4,binding result,[1],binds
B5,binding result,[1],binds
